Experimental data taken from US20090175863A1 (BIOTEST, published 2009).
Several values for one entry are separate records, joined by “and”; a condition that tells them apart may be missing. Equal values may be shown once.

Columns and labels:
[1] = molecular target: T1, CD138 expressed on the cell surface (OPM-2 cells, MOLP-8 cells) (human, UniProt P18827 23-310); experiment: FACS on CD138+ OPM-2 cells, fluorescence-labeled secondary antibody, mean fluorescence against concentration
T1 construct: whole, on cells; also called syndecan-1; CD138+ OPM-2
T1 sequence (looked up): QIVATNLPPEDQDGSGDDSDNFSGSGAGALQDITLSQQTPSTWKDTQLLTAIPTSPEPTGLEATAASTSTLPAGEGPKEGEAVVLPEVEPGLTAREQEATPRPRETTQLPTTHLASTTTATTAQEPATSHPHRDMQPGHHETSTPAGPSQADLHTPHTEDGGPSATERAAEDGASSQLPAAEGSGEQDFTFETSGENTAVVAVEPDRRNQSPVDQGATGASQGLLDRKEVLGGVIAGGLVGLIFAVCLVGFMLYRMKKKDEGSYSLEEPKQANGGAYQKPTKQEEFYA
Excerpt: The mean fluorescence measured in these experiments was plotted against the antibody concentration.
In FIG. 6, the mean fluorescences as measure for the amount of cell bound antibody is plotted against different antibody or conjugate concentrations.

[2] = molecular target: T2, Soluble CD138 antigen purified from U-266 cell culture supernatant, biotinylated (human, UniProt P18827 23-245, limits assumed, biotinylated with Sulfo-NHS-LC-Biotin on primary amino groups (lysine residues); positions not stated); experiment: SPR (BIACORE C), biotinylated CD138 on SA chip, conjugate as analyte; mean of three experiments, +/- SD
T2 construct: Natural soluble (shed) CD138 captured on a streptavidin sensor chip; also called bCD138; biotinylated CD138
T2 sequence (looked up): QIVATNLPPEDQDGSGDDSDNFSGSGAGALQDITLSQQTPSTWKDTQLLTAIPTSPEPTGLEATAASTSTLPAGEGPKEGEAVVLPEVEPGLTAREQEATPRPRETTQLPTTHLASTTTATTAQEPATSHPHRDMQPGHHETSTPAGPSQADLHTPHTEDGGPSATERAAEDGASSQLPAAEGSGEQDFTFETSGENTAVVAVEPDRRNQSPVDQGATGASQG

[3] = molecular target: T2, Soluble CD138 antigen purified from …; experiment: SPR (BIACORE C), biotinylated CD138 on SA chip, conjugate as analyte; single experiment

B1: nBT062-SPP-DM1 (antibody, V domains shown)
VH: QVQLQQSGSELMMPGASVKISCKATGYTFSNYWIEWVKQRPGHGLEWIGEILPGTGRTIYNEKFKGKATFTADISSNTVQMQLSSLTSEDSAVYYCARRDYYGNFYYAMDYWGQGTSVTVSS
VL: DIQMTQSTSSLSASLGDRVTISCSASQGINNYLNWYQQKPDGTVELLIYYTSTLQSGVPSRFSGSGSGTDYSLTISNLEPEDIGTYYCQQYSKLPRTFGGGTKLEIKR
**Q.** B1 was tested. Which “EC50 (read off the curve)” value [1] did it give?
**A.** ~1 nM

B2: B-B4-SPP-DM1 (antibody, V domains shown)
VH: QVQLQQSGSELMMPGASVKISCKATGYTFSNYWIEWVKQRPGHGLEWIGEILPGTGRTIYNEKFKGKATFTADISSNTVQMQLSSLTSEDSAVYYCARRDYYGNFYYAMDYWGQGTSVTVSS
VL: DIQMTQSTSSLSASLGDRVTISCSASQGINNYLNWYQQKPDGTVELLIYYTSTLQSGVPSRFSGSGSGTDYSLTISNLEPEDIGTYYCQQYSKLPRTFGGGTKLEIK
**Q.** With B2 as the binder, how does the Kd [2] read?
**A.** 2.6 nM

**Q.** And the Kd [3]?
**A.** 2.6 nM and 2.7 nM

B3: nBT062-SMCC-DM1 (antibody, V domains shown)
VH: QVQLQQSGSELMMPGASVKISCKATGYTFSNYWIEWVKQRPGHGLEWIGEILPGTGRTIYNEKFKGKATFTADISSNTVQMQLSSLTSEDSAVYYCARRDYYGNFYYAMDYWGQGTSVTVSS
VL: DIQMTQSTSSLSASLGDRVTISCSASQGINNYLNWYQQKPDGTVELLIYYTSTLQSGVPSRFSGSGSGTDYSLTISNLEPEDIGTYYCQQYSKLPRTFGGGTKLEIKR
**Q.** How did the “EC50 (read off the curve)” value [1] turn out when B3 was run?
**A.** ~1 nM

B4: nBT062 (antibody, human IgG4, kappa, V domains shown)
VH: QVQLQQSGSELMMPGASVKISCKATGYTFSNYWIEWVKQRPGHGLEWIGEILPGTGRTIYNEKFKGKATFTADISSNTVQMQLSSLTSEDSAVYYCARRDYYGNFYYAMDYWGQGTSVTVSS
VL: DIQMTQSTSSLSASLGDRVTISCSASQGINNYLNWYQQKPDGTVELLIYYTSTLQSGVPSRFSGSGSGTDYSLTISNLEPEDIGTYYCQQYSKLPRTFGGGTKLEIKR
notes: also called cB-B4; chimeric B-B4
**Q.** B4 was tested. Which “EC50 (read off the curve)” value [1] did it give?
**A.** ~1 nM
